Results taken from US20210238275A1 (published 2021).

The binders below were run against cell surface, glycophosphatidylinositol (GPI)-linked human FcRn on HEK 293 cells (human, UniProt P55899 24-297, C-terminal engineered GPI linkage) (assay: IgG competition on 293 cell surface; pH 6.0).

Binder | EC50
N026 (antibody) heavy: not shown light: QSALTQPASVSGSPGQSITISCTGTGSDVGSYNLVSWYQQHPGKAPKLMIYGDSERPSGVSNRFSGSKSGNTASLTISGLQAEDEADYYCSSYAGSGIYVFGTGTKVTVLGQPKAAPSVTLFPPSSEELQANKATLVCLISDFYPGAVTVAWKADSSPVKAGVETTTPSKQSNNKYAASSYLSLTPEQWKSHKSYSCQVTHEGSTVEKTVAPTECS | 3.24 nM
N023 (antibody) heavy: not shown light: QSALTQPASVSGSPGQSITISCTGTGSDVGSYNLVSWYQQHPGKAPKLMIYGDSERPSGVSNRFSGSKSGNTASLTISGLQAEDEADYYCSSYAGSGIYVFGTGTKVTVLGQPKAAPSVTLFPPSSEELQANKATLVCLISDFYPGAVTVAWKADSSPVKAGVETTTPSKQSNNKYAASSYLSLTPEQWKSHKSYSCQVTHEGSTVEKTVAPTECS | 2.48 nM
N024 (antibody) heavy: not shown light: QSALTQPASVSGSPGQSITISCTGTGSDVGSYNLVSWYQQHPGKAPKLMIYGDSERPSGVSNRFSGSKSGNTASLTISGLQAEDEADYYCSSYAGSGIYVFGTGTKVTVLGQPKAAPSVTLFPPSSEELQANKATLVCLISDFYPGAVTVAWKADSSPVKAGVETTTPSKQSNNKYAASSYLSLTPEQWKSHKSYSCQVTHEGSTVEKTVAPTECS | 2.48 nM
N022 (antibody) heavy: not shown light: QSALTQPASVSGSPGQSITISCTGTGSDVGSYNLVSWYQQHPGKAPKLMIYGDSERPSGVSNRFSGSKSGNTASLTISGLQAEDEADYYCSSYAGSGIYVFGTGTKVTVLGQPKAAPSVTLFPPSSEELQANKATLVCLISDFYPGAVTVAWKADSSPVKAGVETTTPSKQSNNKYAASSYLSLTPEQWKSHKSYSCQVTHEGSTVEKTVAPTECS | 2.93 nM
N027 (antibody) heavy: not shown light: QSALTQPASVSGSPGQSITISCTGTGSDVGSYNLVSWYQQHPGKAPKLMIYGDSERPSGVSNRFSGSKSGNTASLTISGLQAEDEADYYCSSYAGSGIYVFGTGTKVTVLGQPKAAPSVTLFPPSSEELQANKATLVCLISDFYPGAVTVAWKADSSPVKAGVETTTPSKQSNNKYAASSYLSLTPEQWKSHKSYSCQVTHEGSTVEKTVAPTECS | 3.25 nM
